Assay results taken from the supplement of paper PMC9112550, “Optimization of the antimicrobial peptide Bac7 by deep mutational scanning” (BMC Biology, 2022).

Test system: Escherichia coli TOP10
Assay: shrunken log2 fold change of peptide-encoding DNA abundance (4.5 h post-induction vs induction); higher = less antimicrobial activity (less host growth inhibition)
Conditions: time post-induction: 4.5 h; library: site-saturation at positions 5, 18, 19, 20
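Also: peptides expressed intracellularly from a pBAD plasmid library in pooled LB shake-flask culture, induced with 0.3% L-arabinose, DNA abundance read by NGS, three biological replicates, DESeq2 with apeglm shrinkage.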

Sequence: RRIRKRPPRLPRPRPRPIDWPRP
- shrunken log2 fold change: 0.29

Sequence: RRIRQRPPRLPRPRPRPVAVPRP
- shrunken log2 fold change: 0.257

Sequence: RRIRARPPRLPRPRPRPWNEPRP
- shrunken log2 fold change: -0.19

Sequence: RRIRPRPPRLPRPRPRPLVRPRP
- shrunken log2 fold change: 0.138

Sequence: RRIRTRPPRLPRPRPRPDYSPRP
- shrunken log2 fold change: -0.0445

Sequence: RRIRARPPRLPRPRPRPETPPRP
- shrunken log2 fold change: 1.65

Sequence: RRIRWRPPRLPRPRPRPNAVPRP
- shrunken log2 fold change: 0.259

Sequence: RRIRKRPPRLPRPRPRPWPAPRP
- shrunken log2 fold change: 0.376

Sequence: RRIRNRPPRLPRPRPRPVDQPRP
- shrunken log2 fold change: -0.213

Sequence: RRIRIRPPRLPRPRPRPTKSPRP
- shrunken log2 fold change: -0.141

Sequence: RRIRRRPPRLPRPRPRPIYTPRP
- shrunken log2 fold change: -0.176

Sequence: RRIRVRPPRLPRPRPRPCTMPRP
- shrunken log2 fold change: -0.193

Sequence: RRIRMRPPRLPRPRPRPMMVPRP
- shrunken log2 fold change: -0.00664

Sequence: RRIRMRPPRLPRPRPRPQMVPRP
- shrunken log2 fold change: -0.243

Sequence: RRIRCRPPRLPRPRPRPHIWPRP
- shrunken log2 fold change: -0.6

Sequence: RRIRNRPPRLPRPRPRPISSPRP
- shrunken log2 fold change: -0.0365

Sequence: RRIRLRPPRLPRPRPRPDWTPRP
- shrunken log2 fold change: 0.000807

Sequence: RRIRERPPRLPRPRPRPLETPRP
- shrunken log2 fold change: -0.0311

Sequence: RRIRLRPPRLPRPRPRPRVIPRP
- shrunken log2 fold change: 0.0615

Sequence: RRIRCRPPRLPRPRPRPSPCPRP
- shrunken log2 fold change: -0.0417

Sequence: RRIRNRPPRLPRPRPRPYGEPRP
- shrunken log2 fold change: -0.16

Sequence: RRIRQRPPRLPRPRPRPNTRPRP
- shrunken log2 fold change: -0.0754

Sequence: RRIRVRPPRLPRPRPRPCTPPRP
- shrunken log2 fold change: -0.13

Sequence: RRIRMRPPRLPRPRPRPHPMPRP
- shrunken log2 fold change: 2.74

Sequence: RRIRKRPPRLPRPRPRPMHMPRP
- shrunken log2 fold change: -0.331

Sequence: RRIRYRPPRLPRPRPRPYPKPRP
- shrunken log2 fold change: -0.201

Sequence: RRIRFRPPRLPRPRPRPAFYPRP
- shrunken log2 fold change: -0.249

Sequence: RRIRPRPPRLPRPRPRPYDQPRP
- shrunken log2 fold change: -0.15

Sequence: RRIRSRPPRLPRPRPRPTMIPRP
- shrunken log2 fold change: -0.163

Sequence: RRIRSRPPRLPRPRPRPSKRPRP
- shrunken log2 fold change: -0.126

Sequence: RRIRARPPRLPRPRPRPRPDPRP
- shrunken log2 fold change: 0.819

Sequence: RRIRGRPPRLPRPRPRPVWVPRP
- shrunken log2 fold change: 0.509

Sequence: RRIRERPPRLPRPRPRPSFWPRP
- shrunken log2 fold change: 0.132

Sequence: RRIRGRPPRLPRPRPRPPKEPRP
- shrunken log2 fold change: 0.176

Sequence: RRIRRRPPRLPRPRPRPPPNPRP
- shrunken log2 fold change: 0.951

Sequence: RRIRIRPPRLPRPRPRPQHHPRP
- shrunken log2 fold change: -0.875

Sequence: RRIRKRPPRLPRPRPRPHKFPRP
- shrunken log2 fold change: 0.0822

Sequence: RRIRNRPPRLPRPRPRPKNAPRP
- shrunken log2 fold change: -0.0561

Sequence: RRIRQRPPRLPRPRPRPHKYPRP
- shrunken log2 fold change: -1.21

Sequence: RRIRRRPPRLPRPRPRPAYTPRP
- shrunken log2 fold change: -0.0735

Sequence: RRIRTRPPRLPRPRPRPYGWPRP
- shrunken log2 fold change: -0.123

Sequence: RRIRTRPPRLPRPRPRPHCLPRP
- shrunken log2 fold change: -0.305

Sequence: RRIRYRPPRLPRPRPRPITYPRP
- shrunken log2 fold change: -0.0505

Sequence: RRIRGRPPRLPRPRPRPWYSPRP
- shrunken log2 fold change: -0.471

Sequence: RRIRTRPPRLPRPRPRPCSRPRP
- shrunken log2 fold change: -0.182

Sequence: RRIRERPPRLPRPRPRPYMQPRP
- shrunken log2 fold change: -0.326

Sequence: RRIRVRPPRLPRPRPRPEPVPRP
- shrunken log2 fold change: 0.365

Sequence: RRIRSRPPRLPRPRPRPNRDPRP
- shrunken log2 fold change: -0.233

Sequence: RRIRFRPPRLPRPRPRPFRHPRP
- shrunken log2 fold change: 0.0504

Sequence: RRIRLRPPRLPRPRPRPGEDPRP
- shrunken log2 fold change: 0.121

Sequence: RRIRHRPPRLPRPRPRPNIIPRP
- shrunken log2 fold change: -0.307

Sequence: RRIRFRPPRLPRPRPRPLERPRP
- shrunken log2 fold change: -0.0153

Sequence: RRIRCRPPRLPRPRPRPGCYPRP
- shrunken log2 fold change: -0.501

Sequence: RRIRVRPPRLPRPRPRPSNEPRP
- shrunken log2 fold change: -0.775

Sequence: RRIRDRPPRLPRPRPRPYKIPRP
- shrunken log2 fold change: -1.46

Sequence: RRIRTRPPRLPRPRPRPNLHPRP
- shrunken log2 fold change: -0.725

Sequence: RRIRFRPPRLPRPRPRPFWEPRP
- shrunken log2 fold change: -0.193

Sequence: RRIRCRPPRLPRPRPRPRMGPRP
- shrunken log2 fold change: 0.0392

Sequence: RRIRGRPPRLPRPRPRPAGPPRP
- shrunken log2 fold change: 0.644

Sequence: RRIRHRPPRLPRPRPRPGQFPRP
- shrunken log2 fold change: -0.0207

Sequence: RRIRQRPPRLPRPRPRPRIYPRP
- shrunken log2 fold change: -0.159

Sequence: RRIRCRPPRLPRPRPRPGHWPRP
- shrunken log2 fold change: 0.0171

Sequence: RRIRKRPPRLPRPRPRPGIKPRP
- shrunken log2 fold change: 0.34

Sequence: RRIRTRPPRLPRPRPRPDLRPRP
- shrunken log2 fold change: -0.0122

Sequence: RRIRRRPPRLPRPRPRPKEFPRP
- shrunken log2 fold change: 0.0689

Sequence: RRIRGRPPRLPRPRPRPFACPRP
- shrunken log2 fold change: 0.39

Sequence: RRIRNRPPRLPRPRPRPSHNPRP
- shrunken log2 fold change: -0.643

Sequence: RRIRCRPPRLPRPRPRPRRMPRP
- shrunken log2 fold change: 0.00514

Sequence: RRIRNRPPRLPRPRPRPTIEPRP
- shrunken log2 fold change: 0.0325

Sequence: RRIRPRPPRLPRPRPRPDSQPRP
- shrunken log2 fold change: -0.127

Sequence: RRIRFRPPRLPRPRPRPQMGPRP
- shrunken log2 fold change: -0.209

Sequence: RRIRPRPPRLPRPRPRPRHCPRP
- shrunken log2 fold change: 0.115

Sequence: RRIRMRPPRLPRPRPRPYGNPRP
- shrunken log2 fold change: 0.081

Sequence: RRIRHRPPRLPRPRPRPYHDPRP
- shrunken log2 fold change: -0.135

Sequence: RRIRDRPPRLPRPRPRPLGLPRP
- shrunken log2 fold change: 0.0955

Sequence: RRIRLRPPRLPRPRPRPFWAPRP
- shrunken log2 fold change: 0.0214

Sequence: RRIRMRPPRLPRPRPRPHKMPRP
- shrunken log2 fold change: 0.193

Sequence: RRIRLRPPRLPRPRPRPTHQPRP
- shrunken log2 fold change: 0.592

Sequence: RRIRGRPPRLPRPRPRPGRQPRP
- shrunken log2 fold change: 0.654

Sequence: RRIRPRPPRLPRPRPRPHGPPRP
- shrunken log2 fold change: 0.0292

Sequence: RRIRPRPPRLPRPRPRPVSNPRP
- shrunken log2 fold change: -0.622

Sequence: RRIRERPPRLPRPRPRPNMCPRP
- shrunken log2 fold change: -0.369

Sequence: RRIRTRPPRLPRPRPRPDTIPRP
- shrunken log2 fold change: -0.0386

Sequence: RRIRGRPPRLPRPRPRPYVHPRP
- shrunken log2 fold change: -0.142

Sequence: RRIRNRPPRLPRPRPRPGTEPRP
- shrunken log2 fold change: -0.145

Sequence: RRIRTRPPRLPRPRPRPFMYPRP
- shrunken log2 fold change: -0.576

Sequence: RRIRKRPPRLPRPRPRPANMPRP
- shrunken log2 fold change: -0.167

Sequence: RRIRNRPPRLPRPRPRPESCPRP
- shrunken log2 fold change: 0.073

Sequence: RRIRSRPPRLPRPRPRPKGLPRP
- shrunken log2 fold change: -0.0223

Sequence: RRIRSRPPRLPRPRPRPVNCPRP
- shrunken log2 fold change: -0.247

Sequence: RRIRLRPPRLPRPRPRPPYCPRP
- shrunken log2 fold change: -0.0882

Sequence: RRIRCRPPRLPRPRPRPEGKPRP
- shrunken log2 fold change: 0.31

Sequence: RRIRHRPPRLPRPRPRPAYTPRP
- shrunken log2 fold change: -0.482

Sequence: RRIRYRPPRLPRPRPRPAWHPRP
- shrunken log2 fold change: -0.249

Sequence: RRIRVRPPRLPRPRPRPFNKPRP
- shrunken log2 fold change: 0.791

Sequence: RRIRARPPRLPRPRPRPLQQPRP
- shrunken log2 fold change: 0.752

Sequence: RRIRTRPPRLPRPRPRPWDQPRP
- shrunken log2 fold change: -0.00674

Sequence: RRIRKRPPRLPRPRPRPGGYPRP
- shrunken log2 fold change: 0.61

Sequence: RRIRRRPPRLPRPRPRPNANPRP
- shrunken log2 fold change: 0.58

Sequence: RRIRTRPPRLPRPRPRPNGAPRP
- shrunken log2 fold change: -0.0908

Sequence: RRIRCRPPRLPRPRPRPHGAPRP
- shrunken log2 fold change: 0.0255

Sequence: RRIRVRPPRLPRPRPRPMRLPRP
- shrunken log2 fold change: 0.617

Sequence: RRIRCRPPRLPRPRPRPTFWPRP
- shrunken log2 fold change: 0.174

Sequence: RRIRTRPPRLPRPRPRPARRPRP
- shrunken log2 fold change: 0.204

Sequence: RRIRSRPPRLPRPRPRPPMTPRP
- shrunken log2 fold change: 0.243

Sequence: RRIRHRPPRLPRPRPRPVDPPRP
- shrunken log2 fold change: -0.0989

Sequence: RRIRVRPPRLPRPRPRPHWAPRP
- shrunken log2 fold change: 0.142

Sequence: RRIRIRPPRLPRPRPRPYTTPRP
- shrunken log2 fold change: -0.0313

Sequence: RRIRDRPPRLPRPRPRPRWPPRP
- shrunken log2 fold change: 0.594

Sequence: RRIRQRPPRLPRPRPRPGGEPRP
- shrunken log2 fold change: 0.218

Sequence: RRIRARPPRLPRPRPRPADYPRP
- shrunken log2 fold change: 0.177

Sequence: RRIRPRPPRLPRPRPRPRSSPRP
- shrunken log2 fold change: 0.151

Sequence: RRIRRRPPRLPRPRPRPIAGPRP
- shrunken log2 fold change: -0.12

Sequence: RRIRKRPPRLPRPRPRPQRPPRP
- shrunken log2 fold change: 0.518

Sequence: RRIRYRPPRLPRPRPRPRSVPRP
- shrunken log2 fold change: -0.0717

Sequence: RRIRQRPPRLPRPRPRPEFVPRP
- shrunken log2 fold change: 0.031

Sequence: RRIRPRPPRLPRPRPRPQIKPRP
- shrunken log2 fold change: -0.282

Sequence: RRIRSRPPRLPRPRPRPQTDPRP
- shrunken log2 fold change: -0.0826

Sequence: RRIRDRPPRLPRPRPRPFHYPRP
- shrunken log2 fold change: -0.00232

Sequence: RRIRSRPPRLPRPRPRPLRQPRP
- shrunken log2 fold change: 0.364

Sequence: RRIRCRPPRLPRPRPRPWKDPRP
- shrunken log2 fold change: 0.00196

Sequence: RRIRFRPPRLPRPRPRPSHMPRP
- shrunken log2 fold change: -0.255

Sequence: RRIRFRPPRLPRPRPRPMVVPRP
- shrunken log2 fold change: -0.0152

Sequence: RRIRDRPPRLPRPRPRPMKLPRP
- shrunken log2 fold change: -0.0161

Sequence: RRIRDRPPRLPRPRPRPTWIPRP
- shrunken log2 fold change: -0.0164
